For one test, the target named is VEGFR2 (dimer) (Homo sapiens, UniProt P35968). Briefly: global fit.
A further test concerns the target VEGFR2 (monomer) (Homo sapiens, UniProt P35968). Briefly: global fit.

By Kd is commonly meant the constant that tells how readily two partners part at equilibrium. A high value points to lower affinity.

VEGFR2 (dimer), sequence (P35968 20-1356): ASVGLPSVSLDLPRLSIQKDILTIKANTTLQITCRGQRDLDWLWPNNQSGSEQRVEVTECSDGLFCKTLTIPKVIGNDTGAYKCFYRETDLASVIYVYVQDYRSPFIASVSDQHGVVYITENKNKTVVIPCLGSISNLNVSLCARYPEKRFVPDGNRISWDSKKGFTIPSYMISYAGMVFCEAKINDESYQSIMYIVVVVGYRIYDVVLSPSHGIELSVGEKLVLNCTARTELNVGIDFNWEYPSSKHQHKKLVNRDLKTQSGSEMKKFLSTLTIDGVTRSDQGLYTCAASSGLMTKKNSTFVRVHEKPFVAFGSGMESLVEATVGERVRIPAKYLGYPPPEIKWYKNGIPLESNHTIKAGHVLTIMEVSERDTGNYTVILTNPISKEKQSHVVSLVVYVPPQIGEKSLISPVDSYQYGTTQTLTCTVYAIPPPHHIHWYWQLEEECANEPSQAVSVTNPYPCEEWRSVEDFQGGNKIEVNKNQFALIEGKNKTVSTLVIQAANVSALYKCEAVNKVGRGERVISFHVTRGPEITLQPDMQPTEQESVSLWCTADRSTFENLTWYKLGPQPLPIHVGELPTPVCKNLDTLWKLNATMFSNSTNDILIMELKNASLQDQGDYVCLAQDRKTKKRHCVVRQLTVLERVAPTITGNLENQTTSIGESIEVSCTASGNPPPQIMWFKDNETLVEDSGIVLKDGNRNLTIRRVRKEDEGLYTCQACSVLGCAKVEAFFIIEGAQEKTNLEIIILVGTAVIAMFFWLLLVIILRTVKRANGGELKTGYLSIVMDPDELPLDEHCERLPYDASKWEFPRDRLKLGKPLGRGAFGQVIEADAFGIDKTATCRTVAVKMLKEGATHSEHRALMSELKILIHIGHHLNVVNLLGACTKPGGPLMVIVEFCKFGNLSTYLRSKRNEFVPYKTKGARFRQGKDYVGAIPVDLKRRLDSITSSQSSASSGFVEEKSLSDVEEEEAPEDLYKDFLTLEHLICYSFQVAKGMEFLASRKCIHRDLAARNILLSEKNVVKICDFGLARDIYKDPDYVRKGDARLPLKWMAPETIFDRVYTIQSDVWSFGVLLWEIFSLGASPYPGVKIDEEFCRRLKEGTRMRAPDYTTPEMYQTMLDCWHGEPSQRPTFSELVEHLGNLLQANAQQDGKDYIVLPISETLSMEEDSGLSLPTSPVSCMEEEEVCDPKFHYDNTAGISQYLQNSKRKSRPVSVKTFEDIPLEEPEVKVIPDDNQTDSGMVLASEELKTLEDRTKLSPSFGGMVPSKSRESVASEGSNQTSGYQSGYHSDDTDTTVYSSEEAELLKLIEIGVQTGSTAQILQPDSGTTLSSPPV
VEGFR2 (monomer), sequence (P35968 20-1356): as above

B1: VEGF (protein)
chain: MTDRQTDTAPSPSYHLLPGRRRTVDAAASRGQGPEPAPGGGVEGVGARGVALKLFVQLLGCSRFGGAVVRAGEAEPSGAARSASSGREEPQPEEGEEEEEKEEERGPQWRLGARKPGSWTGEAAVCADSAPAARAPQALARASGRGGRVARRGAEESGPPHSPSRRGSASRAGPGRASETMNFLLSWVHWSLALLLYLHHAKWSQAAPMAEGGGQNHHEVVKFMDVYQRSYCHPIETLVDIFQEYPDEIEYIFKPSCVPLMRCGGCCNDEGLECVPTEESNITMQIMRIKPHQGQHIGEMSFLQHNKCECRPKKDRARQEKKSVRGKGKGQKRKRKKSRYKSWSVPCGPCSERRKHLFVQDPQTCKCSCKNTDSRCKARQLELNERTCRCDKPRR
For the molecule B1, the equilibrium dissociation constant (Kd) is 0.23 nM in the test with VEGFR2 (dimer) and 10 nM with VEGFR2 (monomer).
